Assay results taken from paper PMC10315472 (2023).

Target: wild-type SARS-CoV-2 Spike receptor-binding domain (SARS-CoV-2, UniProt P0DTC2 319-527)
Experiment: SPR

B1: (ΔGFG)AMSIN (peptide)
chain: CPWNAYECDRHCVSKGYTGGNCRGKIRQTCHCY
Work on B1 yielded a koff of 0.0223 s⁻¹.
